Reference: article PMC11169713 (Frontiers in Immunology, 2024)

What was measured:
[1] = biological target: biotinylated H5 A/Indonesia/5/2005 hemagglutinin (Influenza A virus A/Indonesia/5/2005 …, UniProt A5A5L7, strain, biotin (site not stated))
[2] = biological target: biotinylated H1 A/California/04/2009 hemagglutinin (Influenza A virus A/California/04/2009 …, UniProt C3W5S1, strain, biotin (site not stated))
[3] = biological target: biotinylated H7 A/Shanghai/02/2013 hemagglutinin (Influenza A virus A/Shanghai/02/2013 …, UniProt R4NN21, strain, biotin (site not stated))

Measured: binding result

B1: L5A7.1 (antibody, V domains shown)
VH: QVQLQQSGPGLVKPSQTLSLTCVISGDSVSSNSAAWDWIRQSPSRGLEWLGRTYYRSKWYSDYAVSVKSRITITPDTSKNQFSLHLNSVTPEDTAVYYCARAGVRIFGVIVDSLDYWGQGTLVTVSS
VL: AIQLTQSPSSLSASVGDRVTITCRASQALNSYLAWYQQKPGKAPKLLIFAASTLQSGVPSRFSGSGSGTDFTLTISSLQPEDFATYYCQLSKTFGPGTRVDIE
binds: [1] | [2] | [3]

B2: L5A7.2 (antibody, V domains shown)
VH: QVQLQQSGPGLVKPSQTLSLTCVISGDSVSSNSAAWDWIRQTPSRGLEWLGRTYYRSKWYSDYAVSVKSRITITPDTSKNQFSLRLNSVTPEDTAVYYCARAGVRVFGVIVDSLDYWGQGTLVTVSS
VL: AIQLTQSPSSLSASVGDRVTITCRASQGFSSYLAWYQQKPGKAPQLLIYAASTLQSGVPSRFSGSGSGTDFTLTISSLQPEDFATYYCQQSKTFGPGTRVDIE
binds: [1] | [2] | [3]

B3: L5A7.4 (antibody, V domains shown)
VH: QVQLQQSGPRLVKPSQTLSLTCAISGDSVSSTSAAWDWIRQSSSRGLEWLGRTYYRSRWYHDYEESVKSRITINADTSKNQFSLQLASVTPEDTAVYYCARAGIRVFGIIVDSLDYWGQGSLVTVSS
VL: AIQLTQSPSSLSASVGDRVTITCRASQGFNSYLAWYQQKPGKAPELLIYAASTLQSGVPSRFSGSGSGTDFTLTISSLQPEDFATYYCQQSKTFGPGTKVDIK
binds: [1] | [2] | [3]

B4: L5A7.3 (antibody, V domains shown)
VH: QVQLQQSGPGLVKPSQTLSLTCVISGDSVSSNTAAWDWIRQSPSRGLEWLGRTYYRSRWYSDYADSVKSRITITPDTSKNQFSLHLNSVTPEDTAVYYCARAGIRIFGIIVDSLDYWGQGTLVTVSS
VL: AIQLTQSPSSLSASVGDRVTITCRASQGANSYLAWYQQKPGKAPKLLIYAASTLQSGVPSRFSGSGSGTDFSLTISSLQPEDFATYYCQESKTFGPGTRVDIE
binds: [1] | [2] | [3]
